Measured values taken from US20250304718A1, “HER2 SINGLE DOMAIN ANTIBODY AND USES THEREOF” (Institut Curie, priority 2024, published 2025).

How the values were obtained:
SKBR3 cells = assay: FACS binding of sdAb on SKBR3 cells; conditions: SKBR3 overexpresses HER2 on its surface; data not shown
Procedure: (§1) From inventors humanized sdAb libraries, a phage display subtraction selection system was developed to identify sdAbs that selectively detect the surface of breast tumor cells. The SKBR3 target cell line was used because it overexpresses the HER2 protein on its surface, while the MCF10A cell line, derived from non-cancerous and HER2-negative mammary gland cells, was used to pre-adsorb the libraries. After 3 successive cycles of selection on these cell lines, sdAb clones were analyzed by flow cytometry (FACS) for their binding capacity on SKBR3 cells and MCF10A cells.
(§2) A human VH anti-HER2 was selected for further experiments.

MCF10A cells = assay: FACS binding of sdAb on MCF10A cells; conditions: MCF10A non-cancerous, HER2-negative; data not shown
Procedure: as §1, §2

[1] = target: T1, Her2 recombinant ectodomain fused to a Rabbit Fc domain (Homo sapiens, UniProt P04626); assay: ELISA on Her2 recombinant ectodomain; assay type: binding; conditions: data not shown
T1 construct: validated by ELISA on Her2 recombinant ectodomain fused to a Rabbit Fc domain; Rabbit Fc domain
From the text: The anti-HER2 sdAb was afterward validated by ELISA on Her2 recombinant ectodomain fused to a Rabbit Fc domain (data not shown).

[2] = test system: Jurkat-derived clone bearing a NFAT-YFP gene reporter; assay: Reporter cell system for CAR-T cell activity (FACS); assay type: cell-based; conditions: sdAb in second generation CAR (CD8 TM, 4-1BB, CD3z)
From the text: The anti-HER2 sdAb of the invention was also validated for use in CAR-T format. The model of CAR chosen is the one used to treat diffuse lymphomas (Linguanti F, Abenavoli E M, Berti V, Lopci E. Metabolic Imaging in B-Cell Lymphomas during CAR-T Cell Therapy. Cancers (Basel). 2022 Sep. 27; 14(19):4700. doi: 10.3390/cancers14194700. PMID: 36230629; PMCID: PMC9562671). This anti-lymphoma CAR-T therapy called “second generation” comprises the transmembrane domain of CD8, a costimulation domain from 4-1BB and the CD3z signaling domain. In the case of Kymriah® targeting B lymphocytes, the binding module is an anti-CD19 scFv. In the construction of the invention, the anti-CD19 scFv was replaced by the anti-Her2 sdAb of the invention.
The inventors developed a reporter cell system allowing to identify CAR-T cell activity. It is based on a Jurkat-derived clone bearing a NFAT-YFP gene reporter activated by TCR clustering (Blanchard N. et al, The Journal of Immunology, 2004).

[3] = target: T2, Her2 recombinant ectodomain fused to a Rabbit Fc domain (human; rabbit, UniProt P04626 23-652); assay: ELISA on recombinant Her2 ectodomain-Rabbit Fc
T2 construct: also called Her2 ectodomain-Rabbit Fc; not shown: Rabbit Fc domain

[4] = target: T3, HER2 (Receptor tyrosine-protein kinase erbB-2) on the surface of SKBR3 cells (human, UniProt P04626 23-1255); assay: flow cytometry (FACS) on SKBR3 cells overexpressing HER2; MCF10A HER2-negative cells as control
T3 construct: Endogenous HER2 overexpressed on the SKBR3 breast tumor cell line; also called CD340
Procedure: as §1

B1: anti-HER2 sdAb: fully humanized anti-HER2 VH single domain antibody, SEQ ID NO:2, CDRs SEQ ID NO:7-9 (protein)
VHH: MAEVQLVESGGGLVQPGGSLRLSCAASGAFYKAYNMGWVRQAPGKGLEWVSAISATQGKWVYYADSVKGRFTISRDNSKNTVYLQMNSLRAEDTAVYYCAKLPISKKALYRGQGTLVTVSS
recognition on SKBR3 cells in FACS (SKBR3 cells): specific recognition | recognition on MCF10A cells in FACS (MCF10A cells): not on MCF10A cells | validation by ELISA [1]: validated | activation detected by FACS [2]: specific activation

B2: humanized anti-HER2 single domain antibody (sdAb) of the invention (VHH)
VHH: EVQLVESGGGLVQPGGSLRLSCAASGAFYKAYNMGWVRQAPGKGLEWVSAISATQGKWVYYADSVKGRFTISRDNSKNTVYLQMNSLRAEDTAVYYCAKLPISKKALYRGQGTLVTVSS
notes: Synthetic humanized/human VH single domain antibody (not a camelid VHH), selected by phage display on SKBR3 cells; also called VH anti-Her2; human VH anti-HER2
binding result [3]: binds | binding result [4]: binds
